Molecular target: NAD(P)+-dependent methanol dehydrogenase from Bacillus methanolicus MGA3 (Genbank EIJ77596.1, GI 387585261) (Bacillus methanolicus MGA3) (UniProt P31005)
Assay: cell-based or functional assay

- ratio of "act" to methanol dehydrogenase (in vitro activation test with 5 M methanol, 2 mM NAD, 10 uM methanol dehydrogenase 2315A, pH 7.4) (ratio act : methanol dehydrogenase): 10
Substance: activator protein from Bacillus methanolicus MGA3 (locus tag MGA3_09170, GI 387591061, Accession EIJ83380) (from UniProt Q8KP10 1-185) (enzyme)
